Laboratory results from PMC2289953 (The Journal of Cell Biology, 1991).

Target: the molecule itself
Test: SDS-PAGE

B1: radixin (natural protein, UniProt P26043 1-583, looked up)
chain: MPKPINVRVTTMDAELEFAIQPNTTGKQLFDQVVKTVGLREVWFFGLQYVDSKGYSTWLKLNKKVTQQDVKKENPLQFKFRAKFFPEDVSEELIQEITQRLFFLQVKEAILNDEIYCPPETAVLLASYAVQAKYGDYNKEIHKPGYLANDRLLPQRVLEQHKLTKEQWEERIQNWHEEHRGMLREDSMMEYLKIAQDLEMYGVNYFEIKNKKGTELWLGVDALGLNIYEHDDKLTPKIGFPWSEIRNISFNDKKFVIKPIDKKAPDFVFYAPRLRINKRILALCMGNHELYMRRRKPDTIEVQQMKAQAREEKHQKQLERAQLENEKKKREIAEKEKERIEREKEELMERLRQIEEQTVKAQKELEEQTRKALELEQERQRAKEEAERLDRERRAAEEAKSAIAKQAADQMKNQEQLAAELAEFTAKIALLEEAKKKKEEEATEWQHKAFAAQEDLEKTKEELKTVMSAPPPPPPPPVIPPTENEHDEQDENSAEASAELSSEGVMNHRSEEERVTETQKNERVKKQLQALSSELAQARDETKKTQNDVLHAENVKAGRDKYKTLRQIRQGNTKQRIDEFEAM
- stoichiometry N: 2
